# B1: Ferredoxin-NADP+ reductase from Clostridium acetobutylicum encoded by CA_C0764 (protein)
# chain: MDNPNLLSEEANRCLLCKNPRCKANCPINTPIPEIISLYKEGKIMEAGEILFNNNPLSVICSLVCIHEDQCKGNCVRGIKSEPIKFHEIEEEISEKYLKEAKLKNVQKDKDRIAIVGGGPAGITVAFVLANKGYNVTIFEAHDKIGGVLRYGIPEYRLTKKLVDKLEERLIEVGVKIRPNTVIGPVISLDRLLEDSYKAVFIGTGVWNPKTLDVKGETLGNVHFAIDYLKSPESYRLGKKVAVIGAGNVAMDAARTAKRNGAEVTILYRKSFNEMPASKQEIRETKEDGVEFKLFRAPIEITEEGIKVAFTENVTDAEGKIRTKIIEGKEEFFECDSVVVAVSQAPKDNIVSNTTGLDTKWGLIVTDEKGNTTKKGTFACGDVVTGAKTVVEAAAQAKVVAETIDEYCKNN
# Target: ferredoxin (CA_C0303) from Clostridium acetobutylicum
protein,measurement,value
B1,Ferredoxin NADP+ reductase specific activity,9.5 U/mg protein
